Target: T1, Dog haptoglobin (purified) (dog, UniProt P19006 1-83; P19006 85-329)
T1 construct: haptoglobin alpha chain, dog; haptoglobin beta chain, dog; The supplier is named only for the fluorescent labelling; also called dog Hp; source: bought: Lee Biosolutions (St. Louis, Missouri USA); copies: 2 + 2
T1 sequence (looked up) 1: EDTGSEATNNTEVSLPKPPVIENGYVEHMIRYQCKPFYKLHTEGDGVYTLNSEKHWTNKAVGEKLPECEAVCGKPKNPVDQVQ
T1 sequence (looked up) 2: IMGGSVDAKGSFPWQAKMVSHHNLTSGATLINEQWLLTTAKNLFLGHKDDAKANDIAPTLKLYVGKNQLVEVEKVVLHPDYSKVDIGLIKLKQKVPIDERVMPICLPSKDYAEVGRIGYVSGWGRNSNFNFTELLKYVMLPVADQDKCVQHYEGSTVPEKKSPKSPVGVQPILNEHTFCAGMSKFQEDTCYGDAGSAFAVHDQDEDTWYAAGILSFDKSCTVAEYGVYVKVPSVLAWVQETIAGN
Test: SEC; purified standards of Hb and Hb:Hp complexes on a BioSep-SEC-S3000 column (600 x 7.5 mm), detection at 405 nm
Details: both partners purified

binding result: binds
B1: Dog hemoglobin (natural protein)
chain 1: not shown
chain 2: not shown
notes: hemoglobin subunit alpha, dog; hemoglobin subunit beta, dog; also called dog Hb; purified dog Hb; source: prepared using a standardized method previously described (Palmer et al., 2009)

Reference: article PMC4191077, “Modeling hemoglobin and hemoglobin:haptoglobin complex clearance in a non-rodent species–pharmacokinetic and therapeutic implications” (Frontiers in Physiology, 2014)
